Biological target: T1, full-length human Gasdermin D (human, UniProt P57764 1-484)
T1 construct: Gasdermin D, human, UniProt P57764, 484 residues (53 kDa); His6-SUMO tag removed with Ulp1 protease and anion exchange; also called hGSDMD; GSDMD; source: E. coli BL21 (DE3) Gold, purified (HisTrap, Ulp1 cleavage, anion exchange, Superdex 75)
T1 sequence (looked up): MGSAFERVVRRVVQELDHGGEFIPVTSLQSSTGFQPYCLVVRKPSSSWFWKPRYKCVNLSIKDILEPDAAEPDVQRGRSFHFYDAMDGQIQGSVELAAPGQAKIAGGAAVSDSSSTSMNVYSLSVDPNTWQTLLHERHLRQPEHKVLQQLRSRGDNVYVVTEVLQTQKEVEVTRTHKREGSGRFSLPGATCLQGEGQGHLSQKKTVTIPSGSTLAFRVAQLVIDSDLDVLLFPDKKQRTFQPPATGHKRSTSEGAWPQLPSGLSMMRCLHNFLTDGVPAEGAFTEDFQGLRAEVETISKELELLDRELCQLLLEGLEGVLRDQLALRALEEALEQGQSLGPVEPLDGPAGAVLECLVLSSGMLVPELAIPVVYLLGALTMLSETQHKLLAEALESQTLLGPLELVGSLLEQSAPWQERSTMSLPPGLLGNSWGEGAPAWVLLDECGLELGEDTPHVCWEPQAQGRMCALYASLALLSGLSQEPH
Experiment: native gel or EMSA; native-PAGE, 12% polyacrylamide, 150 V, 25 mM Tris-HCl, 192 mM glycine, pH 8.3; Caspase-1 alone (40 uM), GSDMD alone (40 uM), GSDMD/Caspase-1 at 1:1 and 2:1 equivalents, with and without 20 mM NaTDB
Details: both partners purified

B1: human Caspase-1 (C285A) p20/p10 dimer (complex)
chain 1: NPAMPTSSGSEGNVKLCSLEEAQRIWKQKSAEIYPIMDKSSRTRLALIICNEEFDSIPRRTGAEVDITGMTMLLQNLGYSVDVKKNLTASDMTTELEAFAHRPEHKTSDSTFLVFMSHGIREGICGKKHSEQVPDILQLNAIFNMLNTKNCPSLKDKPKVIIIQAARGDSPGVVWFKD
chain 2: AIKKAHIEKDFIAFCSSTPDNVSWRHPTMGSVFIGRLIEHMQEYACSCDVEEIFRKVRFSFEQPDGRAQMPTTERVTLTRCFYLFPGH
notes: peptides 279-286 and 287-297 are assigned to it; Caspase-1 p10 subunit (p10 fragment), human; peptides 342-352, 375-383 and 384-391 are assigned to it; Polycistronic vector encoding an N-terminal His-tag; also called hCaspase-1 (C285A); protease C285A
Question: Does B1 bind?
Answer: Result: binds

From PMC10369405 (JACS Au, 2023)
